This series relates to Escherichia coli TOP10. The series can be described thus: shrunken log2 fold change of peptide-encoding DNA abundance (4.5 h post-induction vs induction); higher = less antimicrobial activity (less host growth inhibition). The settings on record: time post-induction: 4.5 h; library: site-saturation at positions 5, 18, 19, 20.
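Note: peptides expressed intracellularly from a pBAD plasmid library in pooled LB shake-flask culture, induced with 0.3% L-arabinose, DNA abundance read by NGS, three biological replicates, DESeq2 with apeglm shrinkage.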

Take RRIRHRPPRLPRPRPRPNESPRP: the “shrunken log2 fold change” value was -0.506.

In the case of RRIRHRPPRLPRPRPRPRMHPRP, the “shrunken log2 fold change” value was -0.0289.

In the case of RRIRQRPPRLPRPRPRPKYWPRP, the “shrunken log2 fold change” value is -0.309.

Take RRIRERPPRLPRPRPRPSDQPRP: the “shrunken log2 fold change” value was -1.5.

Take RRIRSRPPRLPRPRPRPLQAPRP: the “shrunken log2 fold change” value came out at 0.302.

For the sequence RRIRKRPPRLPRPRPRPGKAPRP, the “shrunken log2 fold change” value was -0.0571.

In the case of RRIRMRPPRLPRPRPRPTTTPRP, the “shrunken log2 fold change” value is 0.276.

Consider RRIRSRPPRLPRPRPRPACFPRP, for which the “shrunken log2 fold change” value amounted to 1.54.

As to RRIRSRPPRLPRPRPRPSRDPRP, the “shrunken log2 fold change” value was -0.0156.

Turning to RRIRIRPPRLPRPRPRPTWGPRP, the “shrunken log2 fold change” value came out at 0.0223.

As to RRIRWRPPRLPRPRPRPMDHPRP, the “shrunken log2 fold change” value was -0.128.

As for RRIRNRPPRLPRPRPRPKWGPRP, the “shrunken log2 fold change” value is 0.147.

Consider RRIRPRPPRLPRPRPRPIFCPRP, for which the “shrunken log2 fold change” value is -0.0959.

With RRIRPRPPRLPRPRPRPCYSPRP, the “shrunken log2 fold change” value was -0.507.

As for RRIRHRPPRLPRPRPRPCLKPRP, the “shrunken log2 fold change” value was -0.16.

As to RRIRSRPPRLPRPRPRPPMQPRP, the “shrunken log2 fold change” value came to 0.268.

Take RRIRARPPRLPRPRPRPSVQPRP: the “shrunken log2 fold change” value turned out to be 0.629.

In the case of RRIRFRPPRLPRPRPRPHEDPRP, the “shrunken log2 fold change” value was found to be 0.0846.

In the case of RRIRKRPPRLPRPRPRPVTWPRP, the “shrunken log2 fold change” value came out at 0.0106.

On to RRIRWRPPRLPRPRPRPEFKPRP, for which the “shrunken log2 fold change” value came to 0.0019.

Take RRIRNRPPRLPRPRPRPDIHPRP: the “shrunken log2 fold change” value was -0.0173.

Turning to RRIRARPPRLPRPRPRPDNPPRP, the “shrunken log2 fold change” value came out at 0.0396.

On to RRIRMRPPRLPRPRPRPDTWPRP, for which the “shrunken log2 fold change” value came out at 0.34.

In the case of RRIRARPPRLPRPRPRPPFEPRP, the “shrunken log2 fold change” value is 0.504.

Regarding RRIRWRPPRLPRPRPRPMMEPRP, the “shrunken log2 fold change” value came out at 0.134.

For the sequence RRIRWRPPRLPRPRPRPHLVPRP, the “shrunken log2 fold change” value amounted to 0.392.

In the case of RRIRKRPPRLPRPRPRPIQRPRP, the “shrunken log2 fold change” value is -0.0846.

With RRIRLRPPRLPRPRPRPHTAPRP, the “shrunken log2 fold change” value is -0.00187.

On to RRIRWRPPRLPRPRPRPWYCPRP, for which the “shrunken log2 fold change” value turned out to be 0.0408.

As to RRIRPRPPRLPRPRPRPFLTPRP, the “shrunken log2 fold change” value was -0.254.

As for RRIRVRPPRLPRPRPRPPVNPRP, the “shrunken log2 fold change” value worked out at 0.159.

In the case of RRIRCRPPRLPRPRPRPFDVPRP, the “shrunken log2 fold change” value was -0.479.

For RRIRRRPPRLPRPRPRPQYTPRP, the “shrunken log2 fold change” value was -0.221.

With RRIRVRPPRLPRPRPRPDMQPRP, the “shrunken log2 fold change” value was -0.081.

With RRIRRRPPRLPRPRPRPFGLPRP, the “shrunken log2 fold change” value is -0.0905.

For the sequence RRIRSRPPRLPRPRPRPQLAPRP, the “shrunken log2 fold change” value came to 0.0789.

Consider RRIRLRPPRLPRPRPRPCILPRP, for which the “shrunken log2 fold change” value was -0.411.

With RRIRTRPPRLPRPRPRPLPIPRP, the “shrunken log2 fold change” value was -0.0647.

RRIRTRPPRLPRPRPRPESDPRP: the “shrunken log2 fold change” value was -0.0712.

In the case of RRIRNRPPRLPRPRPRPSDDPRP, the “shrunken log2 fold change” value was -0.0915.

Turning to RRIRVRPPRLPRPRPRPYGRPRP, the “shrunken log2 fold change” value is -0.0856.

For RRIRWRPPRLPRPRPRPTKWPRP, the “shrunken log2 fold change” value is -0.126.

In the case of RRIRLRPPRLPRPRPRPCNPPRP, the “shrunken log2 fold change” value is -0.000687.

In the case of RRIRYRPPRLPRPRPRPENVPRP, the “shrunken log2 fold change” value was -0.00208.

As to RRIRKRPPRLPRPRPRPPMSPRP, the “shrunken log2 fold change” value is 0.328.

Take RRIRPRPPRLPRPRPRPHLYPRP: the “shrunken log2 fold change” value is -0.192.

For RRIRYRPPRLPRPRPRPIHEPRP, the “shrunken log2 fold change” value came to 0.00548.

With RRIRQRPPRLPRPRPRPDWKPRP, the “shrunken log2 fold change” value was 0.0112.

Take RRIRWRPPRLPRPRPRPWMTPRP: the “shrunken log2 fold change” value was 0.333.

On to RRIRGRPPRLPRPRPRPCSIPRP, for which the “shrunken log2 fold change” value amounted to 0.0747.

RRIRFRPPRLPRPRPRPWVRPRP: the “shrunken log2 fold change” value was 0.0245.

Turning to RRIRYRPPRLPRPRPRPEVYPRP, the “shrunken log2 fold change” value is -0.0597.

In the case of RRIRQRPPRLPRPRPRPAQMPRP, the “shrunken log2 fold change” value is -0.15.

For the sequence RRIRIRPPRLPRPRPRPGHDPRP, the “shrunken log2 fold change” value turned out to be 0.144.

For RRIRTRPPRLPRPRPRPDPRPRP, the “shrunken log2 fold change” value came to 0.0663.

For the sequence RRIRKRPPRLPRPRPRPWSQPRP, the “shrunken log2 fold change” value is -0.0225.

Regarding RRIRARPPRLPRPRPRPPWPPRP, the “shrunken log2 fold change” value was 0.738.

In the case of RRIRTRPPRLPRPRPRPPQLPRP, the “shrunken log2 fold change” value is 0.0198.

In the case of RRIRSRPPRLPRPRPRPAHDPRP, the “shrunken log2 fold change” value is 0.162.

Turning to RRIRERPPRLPRPRPRPYWQPRP, the “shrunken log2 fold change” value was -0.172.

For the sequence RRIRQRPPRLPRPRPRPCPLPRP, the “shrunken log2 fold change” value is -0.0641.

With RRIRSRPPRLPRPRPRPNLGPRP, the “shrunken log2 fold change” value is -0.0959.

Take RRIRTRPPRLPRPRPRPLKMPRP: the “shrunken log2 fold change” value is -0.0458.

Turning to RRIRDRPPRLPRPRPRPDNKPRP, the “shrunken log2 fold change” value is -0.413.

As to RRIRLRPPRLPRPRPRPVYVPRP, the “shrunken log2 fold change” value is -0.367.

As for RRIRARPPRLPRPRPRPCMNPRP, the “shrunken log2 fold change” value is -0.0756.

Take RRIRIRPPRLPRPRPRPDEAPRP: the “shrunken log2 fold change” value came out at 0.0301.

RRIRQRPPRLPRPRPRPQVQPRP: the “shrunken log2 fold change” value is -0.00173.

On to RRIRFRPPRLPRPRPRPPGPPRP, for which the “shrunken log2 fold change” value came to 0.897.

As to RRIRARPPRLPRPRPRPGHNPRP, the “shrunken log2 fold change” value is -0.0862.

Consider RRIRPRPPRLPRPRPRPMHEPRP, for which the “shrunken log2 fold change” value was found to be 0.297.

In the case of RRIRKRPPRLPRPRPRPLEHPRP, the “shrunken log2 fold change” value came out at 0.156.

On to RRIRFRPPRLPRPRPRPSFMPRP, for which the “shrunken log2 fold change” value is -0.393.

As for RRIRTRPPRLPRPRPRPEELPRP, the “shrunken log2 fold change” value was 0.0343.

Regarding RRIRRRPPRLPRPRPRPQPTPRP, the “shrunken log2 fold change” value worked out at 0.533.

In the case of RRIRMRPPRLPRPRPRPRMRPRP, the “shrunken log2 fold change” value worked out at 1.41.

Consider RRIRGRPPRLPRPRPRPYEPPRP, for which the “shrunken log2 fold change” value was 0.0834.

In the case of RRIRMRPPRLPRPRPRPRLYPRP, the “shrunken log2 fold change” value was found to be 0.212.

In the case of RRIRERPPRLPRPRPRPQPAPRP, the “shrunken log2 fold change” value stood at 0.171.

For the sequence RRIRARPPRLPRPRPRPNESPRP, the “shrunken log2 fold change” value stood at 0.102.

Take RRIRMRPPRLPRPRPRPMDGPRP: the “shrunken log2 fold change” value was determined as 0.418.

With RRIRYRPPRLPRPRPRPEHTPRP, the “shrunken log2 fold change” value is -0.303.

Take RRIRARPPRLPRPRPRPNPPPRP: the “shrunken log2 fold change” value came out at 0.458.

Consider RRIRARPPRLPRPRPRPMCPPRP, for which the “shrunken log2 fold change” value worked out at 0.0408.

As for RRIRSRPPRLPRPRPRPCWMPRP, the “shrunken log2 fold change” value is -0.0635.

With RRIRFRPPRLPRPRPRPDNMPRP, the “shrunken log2 fold change” value is -0.748.

In the case of RRIRWRPPRLPRPRPRPHFAPRP, the “shrunken log2 fold change” value worked out at 0.046.

In the case of RRIRRRPPRLPRPRPRPKCWPRP, the “shrunken log2 fold change” value is 0.307.

As for RRIRWRPPRLPRPRPRPNYKPRP, the “shrunken log2 fold change” value was -0.552.

As to RRIRSRPPRLPRPRPRPCNMPRP, the “shrunken log2 fold change” value was -0.221.

As to RRIRLRPPRLPRPRPRPISHPRP, the “shrunken log2 fold change” value is -0.137.

As to RRIRCRPPRLPRPRPRPSVHPRP, the “shrunken log2 fold change” value was -0.575.

Consider RRIRGRPPRLPRPRPRPLVNPRP, for which the “shrunken log2 fold change” value was determined as 0.4.

As to RRIRRRPPRLPRPRPRPMYGPRP, the “shrunken log2 fold change” value was -0.0152.

For the sequence RRIRHRPPRLPRPRPRPCKQPRP, the “shrunken log2 fold change” value is -0.0199.

With RRIRERPPRLPRPRPRPLDKPRP, the “shrunken log2 fold change” value is -0.114.

As to RRIRPRPPRLPRPRPRPHTGPRP, the “shrunken log2 fold change” value is -0.0698.

Regarding RRIRCRPPRLPRPRPRPHMHPRP, the “shrunken log2 fold change” value is -0.527.

For the sequence RRIRYRPPRLPRPRPRPFPYPRP, the “shrunken log2 fold change” value is -0.0356.

For RRIRDRPPRLPRPRPRPEAKPRP, the “shrunken log2 fold change” value is 2.4.

Consider RRIRIRPPRLPRPRPRPEPKPRP, for which the “shrunken log2 fold change” value turned out to be 0.475.

As to RRIRGRPPRLPRPRPRPFGKPRP, the “shrunken log2 fold change” value was -0.144.

RRIRMRPPRLPRPRPRPMPYPRP: the “shrunken log2 fold change” value amounted to 0.018.

In the case of RRIRSRPPRLPRPRPRPVYKPRP, the “shrunken log2 fold change” value is -0.166.

For the sequence RRIRTRPPRLPRPRPRPTRHPRP, the “shrunken log2 fold change” value stood at 0.237.

As to RRIRDRPPRLPRPRPRPAMGPRP, the “shrunken log2 fold change” value turned out to be 0.399.

On to RRIRSRPPRLPRPRPRPMDNPRP, for which the “shrunken log2 fold change” value was -0.0175.

RRIRSRPPRLPRPRPRPNHSPRP: the “shrunken log2 fold change” value is -0.736.

Turning to RRIRDRPPRLPRPRPRPDPKPRP, the “shrunken log2 fold change” value was determined as 0.189.

As to RRIRTRPPRLPRPRPRPDLTPRP, the “shrunken log2 fold change” value was 0.129.

For RRIRSRPPRLPRPRPRPMWEPRP, the “shrunken log2 fold change” value is 0.0252.

Turning to RRIRERPPRLPRPRPRPPPDPRP, the “shrunken log2 fold change” value is 0.505.

On to RRIRLRPPRLPRPRPRPTYRPRP, for which the “shrunken log2 fold change” value is -0.266.

With RRIRCRPPRLPRPRPRPTRIPRP, the “shrunken log2 fold change” value was determined as 0.258.

In the case of RRIRDRPPRLPRPRPRPIPHPRP, the “shrunken log2 fold change” value is -0.051.

In the case of RRIRCRPPRLPRPRPRPSYTPRP, the “shrunken log2 fold change” value was -0.748.

With RRIRVRPPRLPRPRPRPSQAPRP, the “shrunken log2 fold change” value is 0.0916.

RRIRMRPPRLPRPRPRPKLTPRP: the “shrunken log2 fold change” value was found to be 1.14.

For the sequence RRIRTRPPRLPRPRPRPRPRPRP, the “shrunken log2 fold change” value is 0.81.

As to RRIRRRPPRLPRPRPRPHPGPRP, the “shrunken log2 fold change” value worked out at 0.316.

In the case of RRIRRRPPRLPRPRPRPHMEPRP, the “shrunken log2 fold change” value was determined as 0.0679.

Consider RRIRIRPPRLPRPRPRPHFSPRP, for which the “shrunken log2 fold change” value is -0.181.

Take RRIRQRPPRLPRPRPRPGMRPRP: the “shrunken log2 fold change” value turned out to be 0.941.

As for RRIRVRPPRLPRPRPRPAVTPRP, the “shrunken log2 fold change” value is -0.269.

As to RRIRPRPPRLPRPRPRPSHQPRP, the “shrunken log2 fold change” value was 0.189.

The record behind these values is the supplement of paper PMC9112550, “Optimization of the antimicrobial peptide Bac7 by deep mutational scanning” (BMC Biology, 2022).
